The values below come from article PMC5454376, “Molecular mechanism of Gαi activation by non-GPCR proteins with a Gα-Binding and Activating motif” (Nature Communications, 2017).

Sequences and labels used below:
B1: Human His-Gαi3 WT [human] / Fluorescein-labelled RGS12 GoLoco peptide (residues 1,185–1,221) [modified: 5,6-carboxyfluorescein coupled to the resin-bound peptide after chain elongation; 5,6-carboxyfluorescein coupled to the … (parent)
chain 1: MGCTLSAEDKAAVERSKMIDRNLREDGEKAAKEVKLLLLGAGESGKSTIVKQMKIIHEDGYSEDECKQYKVVVYSNTIQSIIAIIRAMGRLKIDFGEAARADDARQLFVLAGSAEEGVMTPELAGVIKRLWRDGGVQACFSRSREYQLNDSASYYLNDLDRISQSNYIPTQQDVLRTRVKTTGIVETHFTFKDLYFKMFDVGGQRSERKKWIHCFEGVTAIIFCVALSDYDLVLAEDEEMNRMHESMKLFDSICNNKWFTETSIILFLNKKDLFEEKIKRSPLTICYPEYTGSNTYEEAAAYIQCQFEDLNRRKDTKEIYTHFTCATDTKNVQFVFDAVTDVIIKNNLKECGLY
chain 2: DEAEEFFELISKAQSNRADDQRGLLRKEDLVLPEFLR
B2: Human His-Gαi3 WT [human] / Fluorescein-labelled GIV peptide (residues 1,671–1,701) [modified: 5,6-carboxyfluorescein coupled to the resin-bound peptide after chain elongation; 5,6-carboxyfluorescein coupled to the resin-bound … (parent)
chain 1: B1 chain 1
chain 2: KTGSPGSEVVTLQQFLEESNKLTSVQIKSSS
B3: Human His-Gαi3 WT [human] / Fluorescein-labelled DAPLE peptide (residues 1,662–1,695) [modified: 5,6-carboxyfluorescein coupled to the resin-bound peptide after chain elongation; 5,6-carboxyfluorescein coupled to the … (parent)
chain 1: B1 chain 1
chain 2: SASPSSEMVTLEEFLEESNRSSPTHDTPSCRDDL

One assay covers variants of B1. The assay is described as follows: fluorescence polarisation. Particulars: with Fluorescein-labelled RGS12 GoLoco peptide (residues 1,185–1,221) [modified: 5,6-carboxyfluorescein coupled to the resin-bound peptide after chain elongation.
As for chain 1 K257A, the ratio to parent came out at 1.58.
Regarding chain 1 N256A, the ratio to parent amounted to 1.42.
As to chain 1 N256E, the ratio to parent came to 5.78.
On to chain 1 G42R, for which the Kd (commonly the constant that tells how readily two partners part at equilibrium) amounted to 0.098 µM and the ratio to parent is 1.81.
For the variant chain 1 I184A, the ratio to parent is 1.53.
For the variant chain 1 F215A, the ratio to parent was found to be 10.1.
Still for that read-out and setting: the same measure for chain 1 L39A: 3.23; for chain 1 W211A: 1.11.
In the case of chain 1 L249V, the ratio to parent was 1.54.
With chain 1 L249H, the ratio to parent stood at 4.89.
Same read-out and setting: next, chain 1 W258F: 1.15; chain 1 S252A: 0.644; chain 1 S252D: 6.17.
Still for that read-out and setting: next, chain 1 V218A: 1.92.
Regarding chain 1 L36A, the ratio to parent turned out to be 2.18.
Regarding chain 1 F259A, the ratio to parent was found to be 3.43.
In the case of chain 1 K35A, the ratio to parent turned out to be 2.79.
In the case of chain 1 L37A, the ratio to parent worked out at 1.46.

In a further assay the parent is B2. As to the kind of experiment: fluorescence polarisation. As to conditions: with Fluorescein-labelled GIV peptide (residues 1,671–1,701) [modified: 5,6-carboxyfluorescein coupled to the resin-bound peptide after chain elongation. (Fluorescence polarisation rises when a labelled molecule tumbles more slowly, as on binding a larger partner.)
Consider chain 1 F259A, for which the ratio to parent came to 2.57.
On to chain 1 S252D, for which the ratio to parent came out at 5.32.
On to chain 1 S252A, for which the ratio to parent came out at 0.417.
For the variant chain 1 F215A, the Kd was over 10 µM and the ratio to parent is over 20.
On to chain 1 L36A, for which the ratio to parent was 1.22.
For chain 1 W211A, the Kd was over 20 µM and the ratio to parent was over 40.
As to chain 1 I184A, the ratio to parent came out at 3.28.
chain 1 W258F: the ratio to parent came to 3.59.
For the variant chain 1 L39A, the ratio to parent was determined as 5.3.
Still for that read-out and setting: next, chain 1 L37A: 0.822; chain 1 V218A: 0.623; chain 1 L249H: 7.58.
With chain 1 L249V, the ratio to parent was 2.35.
On to chain 1 G42R, for which the Kd was found to be 0.377 µM and the ratio to parent is 0.649.
For the variant chain 1 N256A, the ratio to parent came to 2.11.
On to chain 1 N256E, for which the Kd was over 20 µM and the ratio to parent is over 40.
Regarding chain 1 K35A, the Kd is over 10 µM and the ratio to parent is over 20.
With chain 1 K257A, the ratio to parent is 1.77.

Variants of B3 are the subject of another assay. The assay is described as follows: fluorescence polarisation. As to conditions: with Fluorescein-labelled DAPLE peptide (residues 1,662–1,695) [modified: 5,6-carboxyfluorescein coupled to the resin-bound peptide after chain elongation.
Turning to chain 1 F259A, the ratio to parent came to 2.
